# Test results reported in patent US20130288923, “Nucleotide-Based Probes and Methods for the Detection and Quantification of Macromolecules and Other Analytes” (THE REGENTS OF THE UNIVERSITY OF CALIFORNIA, published 2013).
# B1: TBP electrochemical probe (structured_DNA)
# DNA: GAATAGGTTCCTATAAAAGGTTGGTTTTATAAACCTATCCTATTC
# Target: TATA binding protein (TBP) (UniProt P20226 P20226:1-339)
# Test: square wave voltammetry; nM detection in buffer and in 250 ug/mL HeLa nuclear extract
# Details: tags: recombinantly expressed and purified (Bonham 2009); label: 5'-C6-thiol (gold electrode), internal methylene blue; double stem-loop / single stem-loop switch containing TBP recognition duplex
# Protocol: The ability of the TBP transcription factor electrochemical probe to function in HeLa nuclear cell extract was also tested (FIG. 14(b). The probe directed against TBP was titrated with its target protein against a background of 250 μg/mL crude HeLa nuclear extract (FIG. 14(b), producing a binding curve similar to that observed in buffer (FIG. 14(b). This binding curve was slightly offset from the curve obtained in buffer. Without being limited to any particular theory, a possible explanation for this shift was that this was a contribution from the endogenous TBP present in cell extract. The TBP transcription factor electrochemical probe provided the convenient quantification of transcription factors in cell extract. The sensor's response in buffer, cell extract and, finally, extract to which a large excess of TBP had been added were measured. These measurements were used to calculate the concentration of TF in the sample, C, via the following relationship: […]
# Chain of TATA binding protein (TBP) (P20226 whole entry, one chain of several): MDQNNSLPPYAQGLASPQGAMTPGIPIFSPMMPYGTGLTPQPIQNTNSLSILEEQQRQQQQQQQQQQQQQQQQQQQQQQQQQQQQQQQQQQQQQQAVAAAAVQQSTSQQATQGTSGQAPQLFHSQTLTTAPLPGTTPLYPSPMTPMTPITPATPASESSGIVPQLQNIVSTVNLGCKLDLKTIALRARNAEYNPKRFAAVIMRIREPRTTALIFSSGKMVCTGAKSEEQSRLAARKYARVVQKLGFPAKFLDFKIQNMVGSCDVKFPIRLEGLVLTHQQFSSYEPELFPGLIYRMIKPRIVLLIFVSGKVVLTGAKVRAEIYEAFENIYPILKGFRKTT
binder,measurement,value
B1,binding result,binds
